{
  "source": "paper PMC3577887",
  "about": "“Multiple Consequences of a Single Amino Acid Pathogenic RTK Mutation: The A391E Mutation in FGFR3” (PLoS ONE, 2013)",
  "proteins": {"B1": {"name": "FGFR3 carrying the A391E mutation (Crouzon syndrome with Acanthosis Nigricans) (receptor)", "chain": "ESLGTEQRVVGRAAEVPGPEPGQQEQLVFGSGDAVELSCPPPGGGPMGPTVWVKDGTGLVPSERVLVGPQRLQVLNASHEDSGAYSCRQRLTQRVLCHFSVRVTDAPSSGDDEDGEDEAEDTGVDTGAPYWTRPERMDKKLLAVPAANTVRFRCPAAGNPTPSISWLKNGREFRGEHRIGGIKLRHQQWSLVMESVVPSDRGNYTCVVENKFGSIRQTYTLDVLERSPHRPILQAGLPANQTAVLGSDVEFHCKVYSDAQPHIQWLKHVEVNGSKVGPDGTPYVTVLKTAGANTTDKELEVLSLHNVTFEDAGEYTCLAGNSIGFSHHSAWLVVLPAEEELVEADEAGSVYAGILSYGVGFFLFILVVEAVTLCRLRSPPKKGLGSPTVHKISRFPLKRQVSLESNASMSSNTPLVRIARLSSGEGPTLANVSELELPADPKWELSRARLTLGKPLGEGCFGQVVMAEAIGIDKDRAAKPVTVAVKMLKDDATDKDLSDLVSEMEMMKMIGKHKNIINLLGACTQGGPLYVLVEYAAKGNLREFLRARRPPGLDYSFDTCKPPEEQLTFKDLVSCAYQVARGMEYLASQKCIHRDLAARNVLVTEDNVMKIADFGLARDVHNLDYYKKTTNGRLPVKWMAPEALFDRVYTHQSDVWSFGVLLWEIFTLGGSPYPGIPVEELFKLLKEGHRMDKPANCTHDLYMIMRECWHAAPSQRPTFKQLVEDLDRVLTVTSTDEYLDLSAPFEQYSPGGQDTPSSSSSGDDSVFAHDLLPPAPPSSGGSRT", "notes": "fibroblast growth factor receptor 3, human, with the pathogenic transmembrane-domain mutation A391E; full-length receptor; the mature 130 kDa form in the plasma membrane was quantified; Made from the FGFR3/WT plasmid by site-directed mutagenesis; the mutation occurs in patients; also called FGFR3/A391E; A391E mutant; source: HEK 293 T, transiently transfected (pcDNA 3.1+, Fugene 6), on cells"}},
  "target": "the molecule itself",
  "assay": "cross-linking; 2 mM BS3 (membrane-impermeable) on starved HEK 293 T cells transfected with 1 µg DNA, room temperature, no ligand; Western blot with anti-FGFR3; cross-linked fraction SD/(SM+SD) with the 130 kDa monomer band",
  "data": [
    {"protein": "B1", "values": [
      {"measurement": "stoichiometry N", "result": 2}
    ]}
  ]
}
